# Reference: the supplement of paper PMC12764529
# ± gives the half width of the 95% confidence interval.
# Tests used:
# [1] = folding stability dG unfold (combined trypsin and chymotrypsin); higher = more stable
# Method: (§1)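 Folding stability of de novo designed mini-proteins (<80 aa, no Cys; designed by TrROS, TrMRF, ProteinMPNN and the joint model) was measured by cDNA display proteolysis with trypsin and chymotrypsin. Each protease was used at 11 concentrations in a threefold dilution series plus a no-protease condition. K50 was inferred by Bayesian fitting of sequencing counts, and dG unfold was derived against a sequence-predicted unfolded-state K50 (Tsuboyama et al. method). Sequences shown include variable-length N-terminal GS-type padding (SAGGSAGG...) inside a display construct carrying a PA tag. Rows were kept only if the AF2 dimer inter-PAE was >15, to exclude likely homo-oligomers.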
# [2] = folding stability dG unfold from chymotrypsin proteolysis; higher = more stable
# Method: as §1
Sequence,folding stability dG unfold [1] [kJ/mol],folding stability dG unfold [2] [kJ/mol]
KKRTIEIPFPANGYKVKIEVPEDQGKPIDEEEIQKLLREWHPDMPADDMPAKEIAKYLADEPGIKEVEIERS [r1_463_TrROS],0.554 ± 1.17,2.01 ± 1.05
MDIPIKELLKKAAENGVRIVFPNGAETLSIFPDGEAVVRFPVELPDRPGIPVEEVERVIKIKEDGSLEVEGS [r1_284_TrMRF],< -4.18,-4.53 ± 2.72
MTPEAFAGPGGRPLAELFLARFRRPVLDPETGLPTWEPAGVLVFPRETEPEELAAIFEALPELEEIEIAPAS [r1_132_TrMRF],-0.624 ± 0.92,0.625 ± 0.92
PEISELTSEESEDGTTFTETKVTLKDPNSNKKINATRKVETEVVGDSTTVTSTLTLPKDKKTINESYTISPS [r1_374_JUSTAS],< -4.18,-2.47 ± 2.55
PGEMVPIEWPVKVRVRDPNGPGNKKREVEIPIEYPYPPGQKDPEQMLEMAHELAEELAEKEGPKDVEIEPIS [r1_300_TrROS],-1.99 ± 1.3,1.13 ± 0.544
SADKVIIPFDSPEEIKGIIKEARKAGIPGKEIVIWSEDDWMYKIEVDPNKGNVEIEPVMPPEDLNDEMPSAG [r14_913_TrROS],0.0537 ± 0.502,2.63 ± 0.201
SAGAAAIAEKLGFSPELVEILSVEDVEYTIVVRRTGEPVKMKRPTVKVLVTDPSVPKETTAEVPVAELASAG [r5_517_JUSTAS],-2.99 ± 1.46,-3.38 ± 2.38
SAGDLGEEALKDITENSTPVSPNETRTTTAVIKYKDKLVKITTTVKVPPESGTTVLSTPIEIFSPEELKSAG [r5_96_JUSTAS],< -4.18,-0.494 ± 1.38
SAGEVETRTLPDGSVEIRRVERDPNSDQEVETRERVTFDPATGTARVPREVYRGDRWETEERVIALPASAGG [r19_289_JUSTAS],-1.59 ± 1.13,1.91 ± 0.669
SAGGATTERTFTFPSSVSPEEAAAAVAAEAPPGLRVDVAPVATRADPSGVTTTTLRARFTDPAAPAAASAGG [r13_12_JUSTAS],< -4.18,1.24 ± 0.502
SAGGDSLPENVIKIELEFEIETEDGSKIELKLEIYISPDNKIYVKAEATIILPDKPIKIEIDFEFDVSAGGS [r16_563_TrMRF],15 ± 3.68,14 ± 1.13
SAGGELLEDLNIKEIEVTEVKTYRNPENGMRMYEPTLTIKNPDGEKIKFTIEHMYDPGNPKPMIHIMSAGGS [r8_422_TrROS],–,-0.888 ± 2.18
SAGGENVIIRYKDPDRFKEAIQDAPGIPPENVKTKPNPNGWNEVTFPNPEALDRLKKAGYPVDKIEPSAGGS [r16_381_TrROS],< -4.18,-1.47 ± 1.59
SAGGESIVIPVKTLEEAKKVAEEIKEKFEKLGYKVEIFEEPETGRIIVKVTKKDKGTVSTTIITFPVPSAGG [r13_641_JUSTAS],–,17.6 ± 3.18
SAGGGMSPVGTTTSTSPSGVVTTTTTLEAPPPVVTTTTTTTTPVPPPLPPRPPYGPENRARALARAASAGGS [r16_6_JUSTAS],< -4.18,-0.613 ± 1.63
SAGGGPPGVVKPFTEETTFTVPLAGGPPVEVKTTTTTYTSADPAKRSLVTTTTTSPQNATTTTVTPLSSAGG [r13_654_JUSTAS],< -4.18,-0.839 ± 0.962
SAGGGSMVVEKPVALPPDTDVEEVAKEVAEELFPEDEKYKIEVERYPDSVRITVYDPKNGKPVIETVDSAGG [r13_724_JUSTAS],< -4.18,-2.36 ± 1.88
SAGGIKVKITDEDGEEKTFKVKDINVNKSPNNGMPSLKIKLANGRPWVIMIPPGRPLEPGDEITVRPLSAGG [r13_390_TrROS],-1.89 ± 2.64,-1.55 ± 3.89
SAGGKKKVVIKVEVKNKKTGKTFEKEIVIEIDENETEEQILEKAKELAKKLAEENGLEVKIVEIKPLSAGGS [r8_312_TrROS_Hall],18.5 ± 1.05,16.1 ± 0.753
SAGGKLKEAFEKNGYKAYVHPDSPVVTVEFYKPVKLENGEWKPKKLGTKTIEVDGVDLEKAYEILLKESAGG [r13_924_TrMRF],1.68 ± 0.837,3.91 ± 1.21
SAGGKPGEPVKIKMRGPDGQPMTFPFYAPEPVKIKMNNPGEEHEHTIPPGEPLTFPLPPGDIEVEPVSAGGS [r16_456_TrROS],-0.715 ± 0.837,1.32 ± 0.837
SAGGLEEVAQELEAQGGEVEVRKVGGGSTEITVRLREPEAPRLLEVRLSLPPAGARLQVLSREALPPSAGGS [r16_613_JUSTAS],< -4.18,-2.95 ± 2.13
SAGGLTTQETVSLTSPTNVALTVLSTSVTLSPSTRTLSYTVQGPDGTVTTETVVTPAPLPELDPSAGSAGGS [r16_132_JUSTAS],-0.664 ± 0.628,1.45 ± 0.628
SAGGMIRRITIYITDPGPSAPATTTTITVDVPPDRPDVPDEEVAQRVAESIAPKTGATATVEKIEEVSAGGS [r8_101_JUSTAS],-0.666 ± 0.628,1.7 ± 0.297
SAGGMKAKATFKIPKTFVDPKNNSPKISESEITIEREFKSEEEAKEFVEKIKEELPPELTELVSLELESAGG [r19_209_JUSTAS],< -4.18,-2.52 ± 2.01

Sequence,folding stability dG unfold [1] [kJ/mol],folding stability dG unfold [2] [kJ/mol]
SAGGMKIIKELYDKLPPEVKYFSVPFHYPTGKVEPVKPSPTLSMFEPFNPETGEVDRFVVYRDKIEPLSAGG [r13_803_TrMRF],-0.958 ± 1,0.337 ± 0.753
SAGGMKKITIPMKVLEEKFGIPKNTSPEELAKKLNPKEKVEVLSVTSEKSENGEENPTVTVLVIPPKESAGG [r13_723_TrMRF],-0.922 ± 0.628,0.365 ± 0.586
SAGGMKVEDFVLELPTPEGKKILVEAVKVTTDPEAGLISVELKTPDKKEKLTLSPDEYVRGPSPEEFLKSAG [r5_15_JUSTAS],-2.35 ± 1.38,-1.57 ± 0.795
SAGGMPATLEVRLPDGAGAVGVVRADDPDEIIEAARAIPADAPVVLTTDDPAYGRLFLEAGFDVVTLESAGG [r13_476_TrMRF],-0.575 ± 0.669,1.01 ± 0.276
SAGGMPPNATLSGKRVDFKPVPHPDGKTLLKIYYNGKPIEEIEVPPGEAEKLIAELPENTNIVTLPESAGGS [r8_41_JUSTAS],–,-1.38 ± 2.43
SAGGMTETATTTTTLPDGTVVTTGTTTVTEGSSTTTTTFTTVTTVAPVPPPPYPPAPLPWPEDPVLASAGGS [r8_269_JUSTAS],< -4.18,0.596 ± 0.628
SAGGMTVTVPFTSEEELEAAIEAAPSSLTTVTTTDPARGLRRTLNVDPATRAVVETEEEAVDPEDPALSAGG [r13_945_JUSTAS],< -4.18,-1.58 ± 0.586
SAGGPAGEEVPVRITARIYMPDPDGKMHSHEIPIDIPMPVDELKEKLIKEIMDEHGYHITEIDIEPYSAGGS [r16_511_TrROS],-2.98 ± 1.05,-1.81 ± 0.879
SAGGPDPYNLKVEEETYPNPDGGEMKIPKIEIPDGRLKIDMEMRNPGNGKEHEHEITIPVKPGQEIFISAGG [r13_190_TrROS],0.192 ± 0.879,3.79 ± 0.586
SAGGPEKKILVARDSSDPNLPLEKIKEELEKKGFPPAEVTSAATEPLEKAREKAEKEGNPLIVLPVESAGGS [r16_94_JUSTAS],< -4.18,-3.88 ± 1.34
SAGGPIKRDPDGKIEIHYNEDNGRWHVKIRDPGKPKKEREFKSPDDANEFAKSFANDGWKIDKVEPYPSAGG [r13_727_TrROS],3.49 ± 1.34,4.51 ± 1.05
SAGGPISVGEIEHAADNVDNSHQNGDPNEMMELYDEAEEIQDQYEENGDPEVRDEVKKVVERAKRHMGSAGG [r13_137_TrROS],-1.77 ± 1.88,1.52 ± 0.322
SAGGPWHEITVRAKGPPGNTPEQAVDEVADELADNNPDFTVEIQEVEVNPEDGQVEATIRVEDGKIVSAGGS [r8_26_TrROS],< -4.18,-0.369 ± 0.142
SAGGSADNENNENQKPKPKPKKKLEVTIPVPLPPGDSLEEAMEQAYNIANHLAQSGKLDEVEISIFSAGGSA [r15_450_TrROS],< -4.18,-1.01 ± 1.67
SAGGSAGGSAGPEEFEVLEMEAELNPETGEITVRFGSPEGEEITYTVTRPGELENLKLYASAGGSAGGSAGG [r11_711_TrMRF],–,-0.571 ± 1.63
SAGGSAGGSYLVKIEWRHNGKPIEQTIPIDPGELPLEDIASNFPGYPWKIKVMDPNGEERPFTSAGGSAGGS [r12_540_TrROS],–,-0.0138 ± 1.38
SAGGSAMNVKSKETVEELFSESPEKVSIKKTTTYTFPNSKTVEITYYKPDGKKIATKNLPLSEYSSSAGGSA [r15_755_JUSTAS],–,-0.995 ± 2.47
SAGWVVIEIPKKEIPINPENVQIQEDNDRRYIFIPGEDADELKDQFPNKDVKIEPMPPEQMDRFMKQLSAGG [r19_271_TrROS],–,-1.01 ± 2.3
SAMKIYVAPGPFTVTARPALPGGEEITITTPITPEQVADPAFLEALVQALEDAGVPATYSILPAGVALPSAG [r14_60_JUSTAS],–,2.5 ± 0.92
SVRPDEPVRITVRFPARPVTRYRARPTGPFLGAEPVPVPSATLTLTVPAADLEAVLDALRPLGVEVEVDPSA [r9_167_TrMRF],< -4.18,–
SVVTPYPDGTVVETEPVGDTVLRLVRRPRPLPGGEPVERTTVVLEPVSTRPLPNGELVTERPVLEEEHHHSA [r9_235_JUSTAS],< -4.18,–
VSPEEKEKLEKLAAEPKPIKRTLEITTVKSEGPVELYVFTKKYFVPGKGEEVGEEVVVVPPEEVEELLAELS [r1_415_JUSTAS],< -4.18,–
WIRIPNGQPFRIKAKMKNPDGDDRKHTGKIPMEELGQKNGRPITPEDILDEIKEEARDHGAPVEDVEIEYYS [r1_338_TrROS],< -4.18,–
YEIKDVEFPPYEHPGQEYPMFKIEVKDENGKPKKKVYINPNSGQLIPPGQSLEDMPMPPPFRKFAKELADES [r1_354_TrROS],< -4.18,–
